# Results as given in PMC6526949 (Biochemistry, 2018).
# B1: Escherichia coli O-acetylserine sulfhydrylase isoenzyme B (CysM) (enzyme, UniProt P16703 1-303, looked up)
# chain: MSTLEQTIGNTPLVKLQRMGPDNGSEVWLKLEGNNPAGSVKDRAALSMIVEAEKRGEIKPGDVLIEATSGNTGIALAMIAALKGYRMKLLMPDNMSQERRAAMRAYGAELILVTKEQGMEGARDLALEMANRGEGKLLDQFNNPDNPYAHYTTTGPEIWQQTGGRITHFVSSMGTTGTITGVSRFMREQSKPVTIVGLQPEEGSSIPGIRRWPTEYLPGIFNASLVDEVLDIHQRDAENTMRELAVREGIFCGVSSGGAVAGALRVAKANPDAVVVAIICDRGDRYLSTGVFGEEHFSQGAGI
# modifications: PLP cofactor ligated through a Schiff base to the ε-amino group of Lysine-41 (PLP:CysM ratio approximately 0.57:1)
# Target: the molecule itself
# Experiment: SEC
protein,measurement,value
B1,stoichiometry N,2
